In US8580556B2, “Sulfonylurea-responsive repressor proteins” (E. I. du Pont de Nemours and Company, priority 2008, dated 2013):

B1: L1-9: library L1 hit, sulfonylurea-responsive TetR(B) variant, parent of L2 and L4 (protein)
chain: MGSRLDKSKVINSALELLNEVGIEGLTTRKLAQKLGVEQPTLYWHVKNKRALLDALAIEMLDRHATHFCPLEGESWQDFLRNNAKSMRCALLSHRDGAKVCLGTGFTEKQYETAENSLAFLCQQGFSLENALYAMQAVCIFTLGCVLLDQELQVAKEERETPTTDSMPPLLRQALELKDHQGAEPAFLFGLELIICGLEKQLKCESGS
modifications: Sulfonylurea responsive repressor L1-09
B2: L1-2: library L1 hit, sulfonylurea-responsive TetR(B) variant, SEQ ID NO: 3 (protein)
chain: MGSRLDKSKVINSALELLNEVGIEGLTTRKLAQKLGVEQPTLYWHVKNKRALLDALAIEMLDRHATHFCPLEGESWQDFLRNNAKSFRCALLSHRDGAKVCLGTAVTEKQYETMENILAFLCQQGFSLENALYARRAVIAFTLGCVLWDQEYQVAKEERETPTTDSMPPLLRQARELIDHQGAEPAFLFGLELIICGLEKQLKCESGS
modifications: Sulfonylurea responsive repressor L1-02
B3: L1-20: library L1 hit, sulfonylurea-responsive TetR(B) variant, SEQ ID NO: 6 (protein)
chain: MGSRLDKSKVINSALELLNEVGIEGLTTRKLAQKLGVEQPTLYWHVKNKRALLDALAIEMMDRHQTHFCPLEGESWQDFLRNNAKSMRCALLSHRDGAKVFLGTAWTEKQYETVENLLAFLCQQGFSLENALYALNAVATFTLGCVLWDQEKQVAKEERETPTTDSMPPLLRQAHELGDHQGAEPAFLFGLELIICGLEKQLKSESGS
modifications: Sulfonylurea responsive repressor L1-20
B4: L1-31: library L1 hit, sulfonylurea-responsive TetR(B) variant (protein)
chain: MGSRLDKSKVINSALELLNEVGIEGLTTRKLAQKLGVEQPTLYWHVKNKRALLDALAIEMLDRHATHFCPLEGESWQDFLRNNAKSMRCALLSHRDGAKVMLGTRATEKQYETVENRLAFLCQQGFSLENALYAVRAVHWFTLGCVLIDQEMQVAKEERETPTTDSMPPLLRQAYELYDHQGAEPAFLFGLELIICGLEKQLKCESGS
modifications: Sulfonylurea responsive repressor L1-31
B5: L1-28: library L1 hit, sulfonylurea-responsive TetR(B) variant (protein)
chain: MGSRLDKSKVINSALELLNEVGIEGLTTRKLAQKLGVEQPTLYWHVKNKRALLDALAIEMLDRHATHFCPLEGESWQDFLRNNAKSMRCALLSHRDGAKVWLGTAWTEKQYETPENVLAFLCQQGFSLENALYASRAVVTFTLGCVLTDQEKQVAKEERETPTTDSMPPLLRQAWELLDHQGAEPAFLFGLELIICGLEKQLKCESGS
modifications: Sulfonylurea responsive repressor L1-28
B6: L1-24: library L1 hit, sulfonylurea-responsive TetR(B) variant (protein)
chain: MGSRLDKSKVINSALELLNEVGIEGLTTRKLAQKLGVEQPTLYWHVKNKRALLDALAIEMLDRHNTHFCPLEGESWQDFLRNSAKSMRCALLSHRDGAKVLLGTAVTEKQYETTENSLAFLCQQGFSLENALYAIRAVRTFTLGCVLVDQERQVAKEERETPTTDSMPPLLRQAKELLDHQGAEPAFLFGLELIICGLEKQLKCESGS
modifications: Sulfonylurea responsive repressor L1-24
B7: L1-29: library L1 hit, sulfonylurea-responsive TetR(B) variant, SEQ ID NO: 10 (protein)
chain: MGSRLDKSKVINSALELLNEVGIEGLTTRKLAQKLGVEQPTLYWHVKNKRALLDALAIEMMDRHQTHFCPLEGESWQDFLRNTAKSMRCALLSHRDGAKVWLGTRWTEKQYETPENMLAFLCQQGFSLENALYAWSAVCNFTLGCVLSDQERQVAKEERETPTTDSMPPLLRQAWELSDHQGAEPAFLFGLELIICGLEKQLKCESGS
modifications: Sulfonylurea responsive repressor L1-29

What follows are molecules tested on tetA promoter (PtetA)-lacZ reporter in E. coli KM3. Conditions: 20 μg/ml Ts; 96-well re-test, FIG. 3.
Assay type: cell-based

Molecule	response to thifensulfuron-methyl (Ts), blue colony color
B1	most intensely responding
B2	most intensely responding
B3	most intensely responding

Same assay, conditions: Table 4; anhydrotetracycline 0.4 μM; 48 hrs at 30° C.

Molecule	relative β-galactosidase activity, inducer atc
B4	0.4
B5	0.0
B6	0.1
B1	0.3
B7	0.0
B2	1.2
B3	2.0

Same assay, conditions: Table 4; chlorimuron 20 μg/ml (20 ppm); 48 hrs at 30° C.

Molecule	relative β-galactosidase activity, inducer Ci
B4	1.1
B5	14.6
B6	22.1
B1	9.8
B7	20.9
B2	13.6
B3	13.5

Same assay, conditions: Table 4; chlorsulfuron 20 μg/ml (20 ppm); 48 hrs at 30° C.

Molecule	relative β-galactosidase activity, inducer Cs
B4	1.4
B5	5.8
B6	3.3
B7	15.8
B2	4.1
B3	22.0

Same assay, conditions: Table 4; ethametsulfuron 20 μg/ml (20 ppm); 48 hrs at 30° C.

Molecule	relative β-galactosidase activity, inducer Es
B4	13.7
B5	0.8
B6	0.2
B7	1.7
B2	5.8
B3	15.0

Same assay, conditions: Table 4; metsulfuron 20 μg/ml (20 ppm); 48 hrs at 30° C.

Molecule	relative β-galactosidase activity, inducer Ms
B4	0.5
B5	18.8
B6	0.4
B1	1.2
B2	1.9
B3	12.4

Same assay, conditions: Table 4; nicosulfuron 20 μg/ml (20 ppm); 48 hrs at 30° C.

Molecule	relative β-galactosidase activity, inducer Ns
B4	0.5
B5	0.1
B6	0.3
B1	0.3
B7	0.1
B2	1.3
B3	1.6

Same assay, conditions: Table 4; no inducer; 48 hrs at 30° C.

Molecule	relative β-galactosidase activity, inducer None
B4	0.3
B5	0.0
B6	0.1
B1	0.3
B7	0.0
B2	1.0
B3	1.4

Same assay, conditions: Table 4; rimsulfuron 20 μg/ml (20 ppm); 48 hrs at 30° C.

Molecule	relative β-galactosidase activity, inducer Rs
B4	0.4
B5	0.2
B6	0.3
B1	0.4
B7	0.1
B2	1.3
B3	2.0

Same assay, conditions: Table 4; sulfometuron 20 μg/ml (20 ppm); 48 hrs at 30° C.

Molecule	relative β-galactosidase activity, inducer Sm
B4	0.9
B5	1.1
B6	3.1
B1	0.6
B7	2.7
B2	4.7
B3	6.0

Same assay, conditions: Table 4; thifensulfuron 20 μg/ml (20 ppm); 48 hrs at 30° C.

Molecule	relative β-galactosidase activity, inducer Ts
B4	0.9
B5	0.1
B6	0.3
B1	1.1
B7	0.0
B2	1.6
B3	2.6

Same assay, conditions: Table 4; tribenuron 20 μg/ml (20 ppm); 48 hrs at 30° C.

Molecule	relative β-galactosidase activity, inducer Tb
B4	0.1
B5	0.3
B6	1.6
B1	0.4
B7	0.3
B2	1.7
B3	2.6

Same assay, conditions: Table 8; inducers given as numbers without key

Molecule	Inducer preference
B7	9 (weak)

Same assay, conditions: Table 10; chlorsulfuron 2 ppm; 48 hours at 30° C.

Molecule	relative β-galactosidase activity, inducer Cs
B1	2.2
B7	0.2

Same assay, conditions: Table 10; ethametsulfuron 2 ppm; 48 hours at 30° C.

Molecule	relative β-galactosidase activity, inducer Es
B7	0.3

Same assay, conditions: Table 10; metsulfuron 2 ppm; 48 hours at 30° C.

Molecule	relative β-galactosidase activity, inducer Ms
B1	0.9
B7	0.3

Same assay, conditions: Table 10; no inducer; 48 hours at 30° C.

Molecule	relative β-galactosidase activity, No inducer
B1	0.9
B7	0.1

Same assay, conditions: Table 10; sulfometuron 2 ppm; 48 hours at 30° C.

Molecule	relative β-galactosidase activity, inducer Sm
B1	0.9
B7	0.2
